Source: publication PMC2683827

Target: paclitaxel stabilized microtubules (UniProt P02550)
Test: co-sedimentation; tau 0-10 μM mixed with paclitaxel stabilized microtubules (1.6 μM tubulin dimers, 20 μM paclitaxel) in 80 mM PIPES pH 7.0, 2 mM MgCl2, 0.5 mM EGTA; 30 min at room temperature; 100,000 x g for 5 min at 23°C; tau in the pellet measured by gel densitometry or western blot; noncooperative single-site fit; unphosphorylated and GSK-3β phosphorylated tau

UniProt P02550, sequence (P02550 whole entry, looked up): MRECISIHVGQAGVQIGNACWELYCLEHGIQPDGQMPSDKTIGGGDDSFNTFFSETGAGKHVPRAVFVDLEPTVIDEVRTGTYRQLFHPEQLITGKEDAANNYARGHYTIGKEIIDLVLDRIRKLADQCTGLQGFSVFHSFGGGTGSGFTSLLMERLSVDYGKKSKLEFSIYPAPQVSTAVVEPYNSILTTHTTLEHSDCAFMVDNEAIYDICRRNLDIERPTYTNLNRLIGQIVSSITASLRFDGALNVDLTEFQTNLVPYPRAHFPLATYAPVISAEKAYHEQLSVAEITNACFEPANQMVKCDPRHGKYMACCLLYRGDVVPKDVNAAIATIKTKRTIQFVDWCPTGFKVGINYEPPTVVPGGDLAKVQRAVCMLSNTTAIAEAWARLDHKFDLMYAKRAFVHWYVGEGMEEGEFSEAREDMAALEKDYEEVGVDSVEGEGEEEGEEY

Substance	fold decrease in microtubule affinity upon GSK-3β phosphorylation, against the unphosphorylated isoform [fold]
GSK-3β phosphorylated tau isoform 1N3R (from UniProt P10636-4 1-381) (natural protein)	3
GSK-3β phosphorylated tau isoform 1N4R (from UniProt P10636-7 1-412) (natural protein)	3
